In US20250250357A1 (NANJING ZAIMING PHARMACEUTICAL, published 2025) one finds OD450 nm and OD450 data, which are given here for 7 molecules.

In assay [1] the target is T1, human MSLN-hFc protein (Acro, Cat. No. MSN-H5253) (human, UniProt Q13421 296-580).
T1 construct: bought protein; also called human MSLN full-length protein; not shown: human Fc (hFc) of the bought protein
Put plainly: ELISA, coated human MSLN-hFc, antibody 100 nM. (In general: ELISA stands for enzyme-linked immunosorbent assay.)

The target of assay [2] is T1, human MSLN-hFc protein (Acro, Cat. No. …). Put plainly: ELISA, coated human MSLN-hFc, antibody 10 nM.
Assay [3] shares this target. Put plainly: ELISA, coated human MSLN-hFc, antibody 0.001 nM.
For assay [4] the target is unchanged. Put plainly: ELISA, coated human MSLN-hFc, antibody 0.1 nM.
Assay [5] shares this target. Put plainly: ELISA, coated human MSLN-hFc, antibody 1 nM.
Assay [6] has the same target. Put plainly: ELISA, coated human MSLN-hFc, antibody 0.0001 nM.
Assay [7] shares this target. Put plainly: ELISA, coated human MSLN-hFc, antibody 0.01 nM.
The target in assay [8] is T2, human MSLN-R3-3 polypeptide (human).
T2 construct: also called human MSLN-R3-3 protein; hMSLN-R3-3
Put plainly: ELISA, coated antigen; antibody 0.0001 nM.

For assay [9], the target named is T2, human MSLN-R3-3 polypeptide. Put plainly: ELISA, coated antigen; antibody 100 nM.
Assay [10] shares this target. Put plainly: ELISA, coated antigen; antibody 1 nM.
Assay [11] addresses T3, human MSLN-R2-his protein (human, UniProt Q13421 391-486).
T3 construct: also called human MSLN-R2 protein; hMSLN-R2-his; not shown: His tag
Put plainly: ELISA, coated antigen; antibody 0.001 nM.

Assay [12] addresses T4, human MSLN-R3-his protein (human, UniProt Q13421 487-598).
T4 construct: also called human MSLN-R3 protein; hMSLN-R3-his; not shown: His tag
Put plainly: ELISA, coated antigen; antibody 0.001 nM.

Assay [13] concerns the target T2, human MSLN-R3-3 polypeptide. Put plainly: ELISA, coated antigen; antibody 0.1 nM.
Assay [14] concerns the target T4, human MSLN-R3-his protein. Put plainly: ELISA, coated antigen; antibody 0.0001 nM.
The target in assay [15] is T4, human MSLN-R3-his protein. Put plainly: ELISA, coated antigen; no antibody (blank, column 'none').
Assay [16] addresses T4, human MSLN-R3-his protein. Put plainly: ELISA, coated antigen; antibody 0.1 nM.
Assay [17] addresses T3, human MSLN-R2-his protein. Put plainly: ELISA, coated antigen; antibody 1 nM.
Assay [18] has as its target T3, human MSLN-R2-his protein. Put plainly: ELISA, coated antigen; antibody 0.1 nM.
Assay [19] has as its target T3, human MSLN-R2-his protein. Put plainly: ELISA, coated antigen; antibody 100 nM.
Assay [20] addresses T2, human MSLN-R3-3 polypeptide. Put plainly: ELISA, coated antigen; antibody 0.001 nM.
Assay [21] addresses T3, human MSLN-R2-his protein. Put plainly: ELISA, coated antigen; antibody 10 nM.
The target in assay [22] is T2, human MSLN-R3-3 polypeptide. Put plainly: ELISA, coated antigen; antibody 10 nM.
The target of assay [23] is T3, human MSLN-R2-his protein. Put plainly: ELISA, coated antigen; antibody 0.01 nM.
Assay [24] deals with T4, human MSLN-R3-his protein. Put plainly: ELISA, coated antigen; antibody 1 nM.
Assay [25] has as its target T3, human MSLN-R2-his protein. Put plainly: ELISA, coated antigen; no antibody (blank, column 'none').
Assay [26] concerns the target T2, human MSLN-R3-3 polypeptide. Put plainly: ELISA, coated antigen; antibody 0.01 nM.
For assay [27] the target is unchanged. Put plainly: ELISA, coated antigen; no antibody (blank, column 'none').
The target of assay [28] is T4, human MSLN-R3-his protein. Put plainly: ELISA, coated antigen; antibody 0.01 nM.
Assay [29] concerns the target T4, human MSLN-R3-his protein. Put plainly: ELISA, coated antigen; antibody 100 nM.
In assay [30] the target is T3, human MSLN-R2-his protein. Put plainly: ELISA, coated antigen; antibody 0.0001 nM.
In assay [31] the target is T4, human MSLN-R3-his protein. Put plainly: ELISA, coated antigen; antibody 10 nM.

T3 sequence (Q13421 other isoform, or with tags, fused parts or gaps): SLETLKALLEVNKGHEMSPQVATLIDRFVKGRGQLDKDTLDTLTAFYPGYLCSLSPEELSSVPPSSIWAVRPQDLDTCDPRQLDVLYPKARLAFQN
T4 sequence (Q13421 495-606): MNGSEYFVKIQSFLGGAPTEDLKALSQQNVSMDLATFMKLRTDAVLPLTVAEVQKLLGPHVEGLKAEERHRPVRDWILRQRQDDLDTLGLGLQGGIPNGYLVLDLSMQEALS
T1 sequence (Q13421 other isoform, or with tags, fused parts or gaps limits assumed): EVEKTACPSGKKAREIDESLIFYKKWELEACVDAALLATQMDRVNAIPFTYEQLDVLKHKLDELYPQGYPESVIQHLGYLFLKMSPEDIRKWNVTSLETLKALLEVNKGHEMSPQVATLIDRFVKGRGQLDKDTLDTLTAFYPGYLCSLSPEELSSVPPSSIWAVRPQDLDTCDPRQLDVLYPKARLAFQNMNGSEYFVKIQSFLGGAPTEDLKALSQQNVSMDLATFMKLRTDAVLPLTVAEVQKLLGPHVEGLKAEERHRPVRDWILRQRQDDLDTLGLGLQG

B1: F2.39.3-H5 (scFv, not shown: small tags and cut ends)
scFv: EVQLVQSGAEVKKPGASVKVSCKASGYTFTNYWMHWVRQAPGQGLEWMGNINPSSGDSYYNERFMSRVTMTVDKSTSTAYMELSSLRSEDTAVYYCARSGGLWLAFWGQGTLVTVSSGGGGSGGGGSGGGGSDIVMTQSPDSLAVSLGERATINCKSSQTLLNSVSQNNYLAWYQQKPGQSPKLLIYFASTRESGVPDRFSGSGSGTDFTLTISSLQAEDVAVYYCQQHYRTPYTFGGGTKVEIK
notes: also called S009-F2.39.3 humanized VH2 + VL1
Regarding B1, the OD450 nm in assay [1] was found to be 1.87; in assay [2], 1.21; in assay [3] it was 0.06; in [4], 0.11; in [5], 0.39; in assay [6] it was 0.06. Moreover, the OD450 nm in [7] was 0.06.

B2: F2.39.3-H9 (scFv, not shown: small tags and cut ends)
scFv: EVQLVQSGAEVKKPGASVKVSCKASGYTFTNYWMHWVRQAPGQGLEWMGNINPSSGDSYYNERFMSRVTMTVDKSTSTAYMELSSLRSEDTAVYYCARSGGLWLAFWGPGTLVTVSSGGGGSGGGGSGGGGSDIVMTQSPDSLAVSLGERATINCKSSQTLLNSVSQNNYLAWYQQKPGQSPKLLIYFASTRESGVPDRFSGSGSGTDFTLTISSLQAEDVAVYYCQQHYRTPYTFGGGTKVEIK
notes: also called S009-F2.39.3 humanized VH3 + VL1
Regarding B2, the OD450 nm in assay [1] is 1.81; in [2] it was 1.22; in assay [3] it was 0.06; in assay [4] it was 0.11; in [5] it was 0.39; in [6], 0.05. Further, the OD450 nm in assay [7] was determined as 0.06.

B3: F2.39.3-H2 (scFv, not shown: small tags and cut ends)
scFv: EVQLVQSGAEVKKPGASVKVSCKASGYTFTNYWMHWVRQAPGQGLEWMGNINPSSGDSYYNERFMSRVTMTVDKSTSTVYMELSSLRSEDTAVYYCARSGGLWLAFWGQGTLVTVSSGGGGSGGGGSGGGGSDIVMTQSPDSLAVSLGERATINCKSSQTLLNSVSQNNYLAWYQQKPGQSPTLLIYFASTRESGVPDRFSGSGSGTDFTLTISSLQAEDVAVYYCQQHYRTPYTFGGGTKVEIK
notes: also called S009-F2.39.3 humanized VH1 + VL2
B3: the OD450 nm in [1] came out at 1.82; in assay [2], 1.19; in assay [3] it was 0.06; in assay [4], 0.1; in assay [5], 0.3; in [6], 0.06. In assay [7], this molecule showed an OD450 nm of 0.06.

B4: F2.39.3-H1 (scFv, not shown: small tags and cut ends)
scFv: EVQLVQSGAEVKKPGASVKVSCKASGYTFTNYWMHWVRQAPGQGLEWMGNINPSSGDSYYNERFMSRVTMTVDKSTSTVYMELSSLRSEDTAVYYCARSGGLWLAFWGQGTLVTVSSGGGGSGGGGSGGGGSDIVMTQSPDSLAVSLGERATINCKSSQTLLNSVSQNNYLAWYQQKPGQSPKLLIYFASTRESGVPDRFSGSGSGTDFTLTISSLQAEDVAVYYCQQHYRTPYTFGGGTKVEIK
notes: expressed as VH-(G4S)3-VL-his or VL-(G4S)3-VH-his; also called S009-F2.39.3 humanized VH1 + VL1
As for B4, the OD450 nm worked out at 1.68 in assay [1]; 1.23 in assay [2]; 0.06 in assay [3]; 0.17 in assay [4]; 0.55 in [5]; 0.06 in assay [6]. In addition, the OD450 nm in assay [7] turned out to be 0.07.

B5: F2.39.3-H6 (scFv, not shown: small tags and cut ends)
scFv: EVQLVQSGAEVKKPGASVKVSCKASGYTFTNYWMHWVRQAPGQGLEWMGNINPSSGDSYYNERFMSRVTMTVDKSTSTAYMELSSLRSEDTAVYYCARSGGLWLAFWGQGTLVTVSSGGGGSGGGGSGGGGSDIVMTQSPDSLAVSLGERATINCKSSQTLLNSVSQNNYLAWYQQKPGQSPTLLIYFASTRESGVPDRFSGSGSGTDFTLTISSLQAEDVAVYYCQQHYRTPYTFGGGTKVEIK
notes: also called S009-F2.39.3 humanized VH2 + VL2
For the molecule B5, the OD450 nm in assay [1] was found to be 1.69; in assay [2], 1.18; in [3] it was 0.06; in assay [4], 0.1; in [5], 0.31; in [6] it was 0.06. The molecule further yielded an OD450 nm in assay [7] of 0.07.

B6: F2.39.3-H8 (scFv, not shown: small tags and cut ends)
scFv: EVQLVQSGAEVKKPGASVKVSCKASGYTFTNYWMHWVRQAPGQGLEWMGNINPSSGDSYYNERFMSRVTMTVDKSTSTAYMELSSLRSEDTAVYYCARSGGLWLAFWGQGTLVTVSSGGGGSGGGGSGGGGSDIVMTQTPLSLSVTPGQPASISCKSSQTLLNSVSQNNYLAWYQQKPGQSPTLLVYFASTRESGVPDRFSGSGSGTDFTLKISRVEAEDVGVYYCQQHYRTPYTFGGGTKVEIK
notes: also called S009-F2.39.3 humanized VH2 + VL4
For B6, the OD450 nm in assay [1] is 1.95; in assay [2], 1.17; in assay [3] it was 0.06; in assay [4] it was 0.1; in assay [5] it was 0.31; in [6], 0.05. Also, in assay [7], the OD450 nm turned out to be 0.06.

B7: S009-F3.80.22 (antibody, human IgG1, kappa, V domains shown)
VH: QVQLQQSGAELVRPGASVTLSCKASGYTFTDYEIHWVKQTPVHGLEWIGAFDPEIGGSAYNQKFKDRATLTADKSSSTAYMELHSLTAEDSAVYYCTDYYGSSSGYFDVWGTGTTVTVSS
VL: DVVMTQTPLSLPVSLGDQASISCRSSQSLEHNNGNTYLHWFLHKPGQSPKLLIYKVSNRFSGVPDRFSGSGSGTDFTLKISRVEAEDLGVYFCSQSTHVPFTFGSGTKLEIKR
notes: Human-murine chimeric antibody, human IgG1/kappa constant regions
B7: the OD450 in [8] stood at 0.08 OD450; in assay [9], 1.93 OD450; in assay [10], 1.84 OD450; in assay [11], 0.06 OD450; in assay [12], 0.12 OD450; in [13], 1.47 OD450. Further, the OD450 in assay [14] turned out to be 0.08 OD450; in [15], 0.08 OD450; in assay [16] it was 1.55 OD450; in assay [17], 0.06 OD450; in assay [18] it was 0.06 OD450; in [19], 0.06 OD450. The OD450 in assay [20] was 0.15 OD450; in assay [21], 0.17 OD450; in assay [22] it was 1.91 OD450; in [23] it was 0.07 OD450; in assay [24] it was 1.91 OD450; in assay [25], 0.07 OD450. Moreover, the OD450 in [26] is 0.55 OD450; in assay [27], 0.08 OD450; in assay [28], 0.51 OD450; in assay [29] it was 2.02 OD450; in [30] it was 0.07 OD450; in assay [31] it was 1.88 OD450.
